B1: Simian Sapelovirus 2 (nucleic acid, listed as Sapelovirus sp.)
DNA: TTTTAACTTGTTATGACATTCAAGGAAAAAATGTCTTTTTCATTATGGGACTGACCTGTTTATGAACATGAGCAGCGGCACTGCTCCACGGGCTATCCGTGTAAGAAATATTGATTATTCTTATGGATCATGATTTCAGGGTTGGCCGCCCAGTCTAAAAGGCAATTGTGGTAAGCTATGTAAGTAGTTGGCTGTTGAAAGGAGCCAAGTACATCCTAGGTCTACGCTGTGCGGGCCGAAGTAAGACTTGGAACAACTCTGAGTAGGCAGTTTTTCTCTTTAGCCCAACACGACCGCATACTGAAGAGCTAGAGGCACTTTGGGGCAAAGGTAAAAGCATTGCTTAGACCGAATGTTCAATGAGACCTTGACGAGTGCTGTCACAGTGTCCCCTGATGGCAGTATGGCGCATGCTCTTGGCATTACCCATATGTGTATCTATAGGGGGGGGGCCCCCTATACTTAGTCTAGTGCTACCTGACAGGGCCGCGGCTGGTCGTCGGTGTGTGGTATAACCAGTAGTAATCCCCCATGGATTGCTTTAACTCCCCCTCCTCCCTCAACAAAACTTTCTCTAAG
B2: HRVB27 (nucleic acid, listed as Rhinovirus sp.)
chain: TTAAAACAGCGGATGGGTATCCCACCATCCGACCCACAGGGTGTAGTGCTCTGGTATTTTGTACCTTTGCACGCCTGTTTCCCCATTGTACCCCTCCTTAAATTTCCTCCCCAAGTAACGTTAGAAGTTTAAGGAAACAAATGTACAATAGGAAGCATCACATCCAGTGGTGTTATGTACAAGCACTTCTGTTTCCCCGGAGCGAGGTATAAGTGGTACCCACCGCCGAAAGCCTTTAACCGTTATCCGCCAATCAACTACGTAATGGCTAGTATTACCATGTTTGTGACTTGGTGTTCGATCAGGTGGTTCCCCCCACTAGTTTGGTCGATGAGGCTAGGAACTCCCCACGGGTGACCGTGTCCTAGCCTGCGTGGCGGCCAACCCAGCTTTTGCTGGGACGCCTTTTTACAGACATGGTGTGAAGACCTGCATGTGCTTGATTGTGAGTCCTCCGGCCCCTGAATGCGGCTAACCTTAACCCCGGAGCCTTGCAACATAATCCAATGTTGTTGAGGTCGTAATGAGTAATTCTGGGATGGGACCGACTACTTTGGGTGTCCGTGTTTCCTTTTATTCTTTATATTGTCTTATGGTCACAGCATATATAGCATATATACTGTGATC
modifications: lipid formulation
B3: EV J 1631 (nucleic acid, listed as Enterovirus sp.)
chain: CACCCTGAGGGCCCACGTGGCGTAGTACTCTGGTATCAAGGTACCTTTGTACGCCTATTTTATTTCCCTTCCCCCACAGTAACTTAGAAGCTTATCTCATAGTTCAACAGTAGGGTCACTAACCAAGTGGCTCAGCGAACAAGCACTTCTGTTTCCCCGGTCCTAGTACCTGTGAAGCTGTACCCACGGCGGAAGGGGAAAAAGATCGTTATCCGGCCCCCTACTTCGGAAAGCCTAGTAACACCATTGAAGCAATCGAGTGTTGCGCTCAGCACAGTAACCCCTGTGTAGCTTTGGTTGATGAGTCTGGGCACTCCCCACTGGCGACAGCGGCCCAGGCTGCGTTGGCGGCCAACCGACTCGGGCAACCGGGTCGGACGCTCGTTTGTGGACATGGTGTGAAGAGCCTACTGAGCTAGAGGGTAGTCCTCCGGCCCCTGAATGCGGATAATCCTAACCCCGGAGCACCCACACTCAATCCAGAGTGCAGGATGTCGTAACGCGTAAGTCTGGGACGGAACCGACTACTTTGGGTGTCCGTGTTTCCTGTTTTACTTACTTTGGCTGCTTATGGTGACAATCTAGTGTTGTTACCATATAGCTATTGGATTGGCCATCCGGTGTTTTGAATTGTGTGTTTATACTAATTCTTTTACATATCACAGACAACCAAAT
modifications: lipid formulation
B4: Parabovirus C (nucleic acid)
DNA: GATGTATCCCCATCCCCCAGTGTGTATGCCATACTGCATAGCTCGCCTATGCCCTATGGATTCACAACCCTTTCATATACCCTCCCTACCCAACCCCGTAACCACATGCTTTACTCCGCTTGGGGTTTTGCGGCCCCATGTTGTGACGAAATGGCTACGCAATCAATGCGGCTAATGGGGCCTGCCGCTTTTAAGTGGCCCCAGTTAGAAGTTTATGCACACCCGCCCATTAGGAGGCCACCAGCCAGGTGGTCAGAGGGCAAGCACTTCTGTTTCCCCGGTGAAGTTTGATAAGCTGTGCCCACGGCTGAAGCAGACAGATCCGTTACCCGCCTCACTACTACGAGACGGCTAGTAGTGTGTAATATCCGAATTTCATTGATCCGGGTGTTCCCCCCACCCAGAAACGTGTGATGAGGAGCGGCACCCCTCCTATGGCAACATAGGGCCTCTCCTGCGCTGGCACACGGGCTCTATGAGCATGAAATCAGGAGAAAGTCACACGAAGACCTTATTGTGCTAGTGTTGATTCCTCCGCCCCCCTGAATGCGGCTAATCCCAACTCCGGAGCGCCCGCTGGCAAACCCGCCAGAAGAGCGTCGTAATGCGTAAGTCTGGAGCGGAACCGACTACTTTGGGTGTGGCGTGTTTCCTTTATTTCCTTTGTATTTGTAT
modifications: lipid formulation; Parabovirus C
B5: HRVA73 (nucleic acid, listed as Rhinovirus sp.)
chain: TTAAAACTGGGTTTGGGTTGTTCCCACCCAAACCACCCACGCGGTGTTGTACACTGTTATTCCGGTAACCTTGTACGCCAGTTTTATATCCCTTCCCCCCCTTGTAACTTAGAAGACATGCGAATCGACCAATAGCAGGCAATCAACCAGATTGTCACCGGTCAAGCACTTCTGTTTCCCCGGCTCTCGTTGATATGCTCCAACAGGGCAAAAACAATTGGAGTCGTTACCCGCAAGATGCCTACGCAAAACCTAGTAGCATCTTCGAAGATTTTTGGTTGGTCGCTCAGTTGCTACCCCAGCAATAGACCTGGCAGATGAGGCTAGAAATACCCCACTGGTGACAGTGTTCTAGCCTGCGTGGCTGCCTGCACACCCACACGGGTGTGAAGCCAAAGATTGGACAAGGTGTGAAGAGTCACGTGTGCTCATCTTGAGTCCTCCGGCCCCTGAATGCGGCTAACCTTAACCCCGTAGCCATTGCTCGCAATCCAGCGAGTATATGGTCGTAATGAGTAATTACGGGATGGGACCGACTACTTTGGGTGTCCGTGTTTCACTTTTTACTTATCAATTTGCTTATGGTGACAATATATATAGATATATATTGACACC
modifications: lipid formulation
B6: Felipivirus 127F (nucleic acid, listed as Felipivirus sp.)
chain: GATGTCGGATGACGGCTGGCCACCGGGGAAAAACGGCAAATGTGCACCACCTCTGCAACCCACGCCGACCACGTTTAACCATGGCGTTAGTAGGAGTGGACCACTGCAGTGGGCTCTGGTGTGCGACAGTCAGTGGTAGAGTAGACAGTCCTGACTGGGCAATGGGACCGCGTTGCGTATCCCTAGGTGGCATCGAGATTCCTCTGCTACCCACCAGCGTGGACTCCTATGGGGGGGGCCCCATAGGCTAGGTCTATACTGCCTGATAGGGTCGCGGCTGGTCGACCACTGACTGTATAACCAGTTGTAACTCACT
B7: Rabovirus A NYC-B10 (nucleic acid)
DNA: CCGACCCCACTGGTCGAAGGCCACTTGGCAATAAGACTGGTGGAACAAGGTCGCCTGTAGTTGATTGGAACCTTCTTTCTAATGACTTATGTCAGCGGTGCTACTCACACCGTAACTCTCCTACCCTATCCCCACGCTTGTGGAACTAGGAGGGGATGAGTGATTCAAGTAAGTACTGTCAGAATGGTGAAAATAATCTGATTCTGAAACGCTATGGATCCATCGAAAGATGGGGCTACACGCCTGCGGAACAACACATGGTAACATGTGCCCCAGGGGCCGAAAGCCACGGTGATAGGATCACCCGTGTAGTTTGAGATCATATCAATGTTCATAGTCTAGTAAGATGATTTGAAATCTAACTGGTCTGATGGCTAACTGCTTGTCTTATTGCGGCCTAAGGATGTCCTGCAGGTACCTTTAGAGAACCTTAAGAGACTATTGATCTGAGCAGGAGCCAAGGTGGTCTTTCCCAGCCTTGGTTAAAAAGCGTCTAAGCCGCGGCAGGGGGCGGGAGGCCCCCTTTCCTCCCAAACTATAATATAGATTGT
modifications: lipid formulation; Rabovirus A
B8: HRVC3 QPM (nucleic acid, listed as Rhinovirus sp.)
chain: TTAAAGCTGGATCATGGTTGTTCCCACCATGATTACCCACGCGGTGCAGTGGTCTTGTATTACGGTACATTTCCATACCAGTTTTATACACCCCACCCCGAAACTCATAGAAGTTTGTACACAATGACCAATAGGTGGTGGCCATCCAGGTCGCTAATGGTCAAGCACTTCTGTTTCCCCGGCACCCTTGTATACGCTTCACCCGAGGCGAAAAATGAGGTTGTCGTTATCCGCAAAGTGCCTACGAAAAGCCTAGTAACACTTTGAAAACCCATGGTTGGTCGCTCAGCTGTTTACCCAACAGTAGACCTGGCAGATGAGGCTAGACATTCCCCACCAGCGATGGTGGTCTAGCCTGCGTGGCTGCCTGCACACCCTGCCGGGTGTGAAGCCAGAAAGTGGACAAGGTGTGAAGAGCCTATTGTGCTCACTTTGAGTCCTCCGGCCCCTGAATGTGGCTAACCCTAACCCCGTAGCTGTTGCATGTAACCCAACATGTATGCAGTCGTAATGGGCAACTATGGGATGGGACCAACTACTTTGGGTGTCCGTGTTTCCTGTTTTACTTTTTCATTGCTTATGGTGACAATTGTATCTGATACACTTGTTACC
modifications: lipid formulation
B9: EV K (nucleic acid)
chain: TCAGCCTGACGCAAGTGCCTCCATTGGAGTCTCTCCAAGCCCTCCGGGGCTTGGAGGGCGCCGACCCCCTGCCTAGGGGGAGCCCACGACACGGCTGGAGTCCATTGGCACACCGCAGCCACGATTCAAGCCAGAATTGAAAGCGGGAAGCACTTCTGTCTCCCCGGTGTGGATCATACGCTGTACCCACGGCGAAAAGTGAAGCATCGTTACCCGACTCGGTACTTCGAGAAGCCCAGTACAGTTGTGGATCTCTGCAGGGTATACGCTCAGCGTGACCCCTACGTAGTTCCTTGAGATGGCTGAGAGAACACCCCACGGGCGACCGTGTCTCTCGGCGCGTGGCTCAAGGCCGGGCCTTCAGTGGCTCGGTGCCTTGCAGAGTGAAGCCTCCGAACAGCCTATTGAGCTACCGTTTAGCCTCCGCCCTCTTGAATGCGGCTAATCCTAACCATGGAGCGCCCGCCCACAGTCCAGTGGGTAGAGCGTCGTAACGCGCAAGTCCGTGGCGGAACCGACTACTTTAGAGTGGCGTGTTTCCAATTTATCCTTTATAAAGTTGCTTATGGTGACACCACAAGAGATCCACGATTTCTTGTTTCTTATCACTGAGACACAAGTCATATTCATCAATCTTTATTGCGGAATTAACTTGGTGCGTCCAAACACATCAGC
modifications: lipid formulation; Enterovirus K

Test system: HEK293 cells
Format: cell-based, human
Conditions: circular RNA encoding Gluc with the listed IRES (UTR truncated to 675 nt) transfected into HEK293 cells; supernatant after 24 hours

Molecule | Expression (luminescence from secreted Gluc protein)
B1 | 4.24E+07
B2 | 2.04E+08
B3 | 9.88E+07
B4 | 1.83E+07
B5 | 1.08E+08
B6 | 8.92E+06
B7 | 1.24E+06
B8 | 1.64E+07
B9 | 7.52E+07

Source: patent US20240245805A1 (Orna Therapeutics, Inc., priority 2020, published 2024)
